Source: patent US20190201542A1 (AbbVie / Abbott, published 2019)

T1: human DLL3 (human, UniProt Q9NYJ7 27-492, limits assumed)
T1 construct: also called hDLL3; DLL3 protein
T1 sequence: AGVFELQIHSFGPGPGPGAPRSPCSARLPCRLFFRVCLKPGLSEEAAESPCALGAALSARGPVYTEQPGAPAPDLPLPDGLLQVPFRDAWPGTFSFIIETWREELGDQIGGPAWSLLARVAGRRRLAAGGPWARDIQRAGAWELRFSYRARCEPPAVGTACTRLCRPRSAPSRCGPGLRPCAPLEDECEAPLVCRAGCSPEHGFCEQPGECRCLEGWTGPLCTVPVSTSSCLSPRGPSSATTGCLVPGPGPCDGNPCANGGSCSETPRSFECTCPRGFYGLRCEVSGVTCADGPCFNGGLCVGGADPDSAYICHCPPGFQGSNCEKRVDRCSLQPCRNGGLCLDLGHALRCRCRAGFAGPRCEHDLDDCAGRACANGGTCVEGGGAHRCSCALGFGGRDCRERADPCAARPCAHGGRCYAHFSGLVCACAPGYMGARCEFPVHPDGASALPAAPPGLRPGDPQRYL

B1: SC16.65 (antibody, V domains shown)
VH: QVTLKESGPGILQPSQTLSLTCSFSGFSLSTSGMGVGWIRQPSGKGLEWLALIWWDDVKRYNPALKSRLTISKDASSSQVFLKIASVDTADTATYYCARIASYDYDVVYAMDYWGQGTSVSVSS
VL: QIVLTQSPALMSASPGEKVTMTCSVTSSVSYMYWYQQKPRSSPKPWIYLTSNLASGVPARFSGSGSGTSYSLTISSVEAEDAATYYCQQWRNNPFTFGSGTKVEIK
notes: murine mAb
B2: SC16.45 (antibody, V domains shown)
VH: QVQLQQSGADLVRPGTSVKVSCKASGYSFTNYLIEWVKQRPGQGLEWIGVINPGSGGTHYNEKFKDKAVLTADKSSTTAHMQLSSLTSDDSAVYFCARSPYDYNDGAMDYWGQGTSVTVSS
VL: EIQMTQSPSSMSASLGDRITITCQATQDIVKNLNWYQQKPGKPPSFLIYYATELAEGVPARFSGSGSGSDYSLTISNLESEDFADYHCLQFYEFPFTFGAGTKLELK
notes: murine mAb
B3: SC16.7 (antibody, V domains shown)
VH: EVQLQQSGPELVKPGASVKISCKASGYSFTGYKMHWVKQSHVKSLEWIGRINPYNGATSYNQNFKDKATLTVDKSSSTAYMDLHSLTSEDSAVYFCARGDYRYDWFAYWGQGTLVTVSA
VL: NIMMTQSPSSLAVSAGEKVTMSCKSSQSVLYSSNQKNYLAWYQQKPGQSPKLLIYWASTRESGVPDRFTGSGSGTDFTLTISTVQVEDLAVYYCHQYLSSWTFGGGTKLEIK
notes: murine mAb
B4: SC16.72 (antibody, V domains shown)
VH: EVQLQQSGPELVKPGASVKMSCKASGYTFTSYVMHWVKQKPGQGLEWIGYINPYNDGTKYNEKFKGKATLTSDKSSSTAYMELSSLTSEDSAVYYCARLRSRAMDYWGQGTSVTVSS
VL: ENVLTQSPAIMSASLGEKVTMSCRASSSVNYMSWYQQKSDASPKLWIYYTSNLAPGVPARFSGSGSGNSYSLTISSMEGEDAATYYCQQFTSSPYTFGGGTKLEIK
notes: murine mAb
B5: SC16.47 (antibody, V domains shown)
VH: EVQLQQSGPELVKPGASVKISCKASGYSFSRFYMHWVKQSPENSLEWIGEINPSTGGTSYNQKFKGKATLTVDKSSSTAYMQLKSLTSEESAVYYCTRGYGSNCYFDVWGAGTTVTVST
VL: DVVLTQSPLSLPVNIGDQASISCKSTKSLLNSDGFTYLDWYLQRPGQSPQFLIYLVSNRFSGVPDRFSGSGSGTDFTLKISRVEAEDLGVYYCFQSNYLPLTFGAGTKLELR
notes: murine mAb
B6: SC16.57 (antibody, V domains shown)
VH: EVKLVESGGDLVKPGGSLKLSCAASGFAFSSYDMSWVRQTPEKRLEWVATISSGGSYTYYPDSVKGRFTISRDNVRDTLYLQMSSLRSEDTALYYCARQAIGTYFDYWGQGTTLTVSS
VL: DIVMTQSHKFMSISVGDRVSITCKASQDVSIFVAWYQQKPGQSPKLLIYSASYRYTGVPDRFTGSGSGTDFIFTISSVQAEDLAVYYCQQHYGTPFTFGSGTKLKIR
notes: murine mAb
B7: SC16.52 (antibody, V domains shown)
VH: QVQLKESGPGLVAPSQSLSITCAVSGFSLTSFAIHWFRKPPGKGLEWLGVIWTGGTTNYNSALMSRLSISKDNSKSQVFLKMNSLQTDDTAMYYCARDDYDNNYAMDYWGQGTSVTVSS
VL: DIQMIQSPSSMFASLGDRVSLSCRASQGIRGTLDWYQQKPNGTIKLLIYSTSNLNSGVPSRFSGSGSGSDYSLTISSLESEDFADYYCLQRNAYPLTFGAGTKLELK
notes: murine mAb
B8: SC16.63 (antibody, V domains shown)
VH: QVQLQQSGTELLRPGASVKISCKATGYTFSSYWMEWVKQRPGHGLEWIGEILPGSGTTQYNEKFKGKATFTADTSSNTAYMHLSSLTSEDSAVYYCARGTNSLWGQGTLVTVSA
VL: QIVLTQSPAIMSASPGEKVTMTCSASSSVSYMYWYQQKSGTSPKRWIYDTSKLASGVPARFSGSGSGTSYSLTISSMEAEDAATYYCQQWSSNPYTFGGGTKLEIK
notes: murine mAb
B9: SC16.73 (antibody, V domains shown)
VH: QVQLQQSGAELMKPGASVKISCKANGYTFSSYWIEWLRQRPGHGLEWIGEILPGSDNSNYNEKFKGKATFTADTSSNTAYMQLSSLTSEESAVYYCTRGLRRDGSYYYVMEHWGQGTSVTVSS
VL: DIQMTQSPSSLSASLGERVSLTCRASQDIGYSLNWLQQEPDGTIKRLIYATSSLDSGVPKRFSGSRSGSDYSLTISSLESEDFVDYYCLQYASSPWTFGGGTKLEIK
notes: murine mAb
B10: SC16.80 (antibody, V domains shown)
VH: EVQLQQSGPELVKPGGSKKISCKASGYSFTGYSMNWVKQSHGKNLEWIGLINPYSGGTIYNQKFKGKATLTVDKSSSTAYMELLSLTSEDSAVYYCARRSDYPLVYWGQGTLVTVSA
VL: ETTVTQSPASLSMAIGEKVTIRCITSTDIDDDMIWYQQKPGEPPKLLISEGNTLRPGVPSRFSSSGYGTDFVFTIENMLSEDVADYYCLKRDDLPYTFGGGTQVEIK
notes: murine mAb
B11: SC16.79 (antibody, V domains shown)
VH: EVQLQQSGPELVKPGASVKISCKTSGYTFTEYTMHWVKQSHGKSLEWIGGINPNNGGTSYNQKFKGKATLTVDKSSSTAYMELRSLTSEDSAVYYCARGPAWFAYWGQGTLVTVSA
VL: DIVMSQSPSSLAVSAGEKVTMSCKSSQSLLNSRTRKNYLAWYQQKPGQSPKLLIYWASTRESGVPDRFTGSGSGTDFTLTISSVQAEDLAVYYCKQSYNLYTFGGGTKLKIK
notes: murine mAb
B12: SC16.81 (antibody, V domains shown)
VH: QVQLKESGPVLVAPSQSLSITCTVSGFSLTSYGVHWVRQPPGKGLEWLGVIWAGGSTNYNSALMSRLSISKDNSKSQVFLKMNSLQTDDTAMYYCAKQGNFYAMDYWGQGTSVTVSS
VL: QIVLTQSPAIMSASLGERVTLTCTASSSVSSSYLHWYQQKPGSSPKLWIYSTSNLASGVPTRFSGSGSGTSYSLRISSMEAEDAATYYCHQYNRSPLTFGAGTKLELK
notes: murine mAb
B13: SC16.61 (antibody, V domains shown)
VH: EVLLQRSGPDLVKPGASVTIPCKASGYTFTDYNMDWVKQSHGKSLEWIGNINTYNGGTIYNQKFKGKATLTVDKPSSTAYMELRSLTSEDTAVYYCARRLRYGGHYFDYWGQGTALTVSS
VL: DIVMTQSTSSLAMSVGQKVTMSCKSSQSLLNSSNQKNYLAWYQQEPGQSPKLLVSFASTRESGVPDRFTGSGSGTDFTLTISGVQAEDLAVYYCQQHYSIPLTFGAGTKLELK
notes: murine mAb
B14: SC16.58 (antibody, V domains shown)
VH: DVQLVESGGGLVQPGGSRKLSCAASGFTFSSFGMHWVRQAPEKGLEWVAYISSGSSNIYYADTVKGRFTISRDNPKNTLFLQMTSLRSEDTAMYYCARGYYGNYDAMDYWGQGTSVTVSS
VL: DIQMTQSPASLSSSVGETVTITCRASENIYSYLAWYQQKQGKSPQLLVYNAKTLAEGVPSRFSGSGSGTQFSLKINSLQPEDFGTYYCQHHYDSPLTFGAGTKLELR
notes: murine mAb
B15: SC16.49 (antibody, V domains shown)
VH: QVQLQQSGPELVKPGTLVKISCKASGYTFTSYDINWVKQRPGQGLEWIGWIYPGDGNTKYSEKFKGKATLTADKSSSTAYMQLTSLTSENSAVYFCARDYDYPFAYWGQGTLVTVSA
VL: DIKMTQSPSSMYASLGERVTITCKASQDINSYLSWFQQKPGKSPKTLIYRANRLVDGVPSRFSGSGSGQDYSLTITSLEYEDMGIYYCLQYDEFPLTFGAGTKLELK
notes: murine mAb
B16: SC16.78 (antibody, V domains shown)
VH: EVKLVESGGGLVKPGGSLKLSCAASGFTFGRYVMSWVRQTPEKKLEWVASITSGGTTYYPDSVKGRFTISRDNARNILYLQMSSLRSEDTAMYYCARVYYHYDDIFAYWGQGTLVTVSA
VL: DIKMTQSPSSMYASLGERVTITCKASQDINSYLSWFQQKPGRSPKTLIYRANRLVDGVPSRFSGSGSGQDYSLTISSLDYEDMGIYYCLQYDEFPFTFGSGTKLEIK
notes: murine mAb
B17: SC16.55 (antibody, V domains shown)
VH: EVQLVESGGGLVQPKGSLKLSCAVSAFTFTTYAMNWVRQAPGKGLEWVARIRNKSNNYATYYADSVKDRFTISRDDSQSMLYLQMNNLKIEDTAMYYCVFYYDYVYWGQGTLVTVSA
VL: DIKMTQSPSSMYASLGERVTITCKASQDINSYLNWFQQKPGKSPKTLIYRANRLVDGVPSRFSGSGSGQDYSLTISSLEYEDMGIYYCLQYDEFPYTFGGGTKLEIK
notes: murine mAb
B18: SC16.62 (antibody, V domains shown)
VH: EVMLVESGGDLVKPGGSLKLSCAASGFTFSSYAMSWVRQTPEKRLEWVAYISGGGDHIYYPDSVRGRFTISRDNAKDTLYLQMSSLRSEDTALYDCARVRDWYFDVWGAGTTVTVSS
VL: DIKMTQSPSSMYASLGERVTITCKASQDINSFLSWFQRKPGKSPKTLIYRANRLVDGVPSRFTGSGSGQEFSLTISSLEYEDLGIYYCLQYDEFPYTFGGGTKLEIK
notes: murine mAb
B19: SC16.67 (antibody, V domains shown)
VH: EVQLVETGGGLVQPKGSLKLSCAVSAFTFTTYAMNWVRQAPGKGLEWVARIRNKSNNYATYYADSVKDRFTISRDDSQSMLYLQMNNLKIEDTAMYYCVFYYDYVYWGQGTLVTVSA
VL: QAVVTQESALTTSPGETVTLTCRSSTGAVTTSNYANWIQEKPDHLFTGLIGGTNNRAPGVPARFSGSLIGDKAALTITGAQTEDEAIYFCGLWYSNHLVFGGGTKLTVL
notes: murine mAb

Biological target: T1, human DLL3
Assay: screen on immobilized hDLL3 or h293-hDLL3 cells
Method in brief: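 Hybridoma supernatants from single cells of mice immunized with human DLL3 were screened after 10 days in culture. Binding by flow cytometry was scored positive when above the control. In the solid-phase ELISA, plates coated with DLL3-His at 0.5 μg/ml were probed with HRP anti-mouse IgG and TMB and read at OD 450.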

Binding result, binds:
B1
B2
B3
B4
B5
B6
B7
B8
B9
B10
B11
B12
B13
B14
B15
B16
B17
B18
B19
